From doi:10.1101/2024.07.29.605598 (bioRxiv, 2024)
Several values for one entry are separate records, joined by “and”; a condition that tells them apart may be missing. Equal entries are not always repeated.

B1: Drosophila melanogaster Cno RA1 domain (amino acids 1-137) (domain or fragment, UniProt Q24279 1-137, looked up)
chain: MSHDKKMLDREAVRSVIQQWNANRLDLFALSEPDENLLFHGVMRFYFQDAGQKVATKCIRVASDATVTDVIDTLIEKFRPDMRMLSVPNYALYEVHANGEERRLNADEKPLLVQLNWHIDDREGRFLLKNIDQKTTP
B2: Drosophila melanogaster GTPase Rap1 G12V (amino acids 1-180), GMPPNP-loaded (enzyme, UniProt P08645 1-180, looked up)
chain: MREYKIVVLGSVGVGKSALTVQFVQCIFVEKYDPTIEDSYRKQVEVDGQQCMLEILDTAGTEQFTAMRDLYMKNGQGFVLVYSITAQSTFNDLQDLREQILRVKDTDDVPMVLVGNKCDLEEERVVGKELGKNLATQFNCAFMETSAKAKVNVNDIFYDLVRQINKKSPEKKQKKPKKSL
B3: Drosophila melanogaster Cno RA2 domain (amino acids 222-350) (domain or fragment, UniProt Q24279 222-350, looked up)
chain: TRSISNPEAVMRRRRQQKLEKKLQQFRSRDGGPDTGGTLKIYGESLCQDVPYKTLLLSIRDCAQAVVREMLTKYGLEKADPLHYCLVQVNSDGTEYILDDDECPLSILMNHPTSRGSIMFHVRRRPADS

Columns and labels:
[1] = target: B2; assay: ITC
[2] = target: B1; assay: SEC-MALS
[3] = target: B3; assay: ITC
[4] = target: B1; assay: ITC

Row | Kd [1] | stoichiometry N [2] | dH [3] | stoichiometry N [3] | dH [4] | stoichiometry N [4] | Binder
1 | 4.5 µM and 5.9 µM | – | – | – | – | – | B1
2 | – | 1 | -3.07 kcal/mol and -2.18 kcal/mol and -2.72 kcal/mol | 0.755 and 0.73 and 0.63 | -4.38 kcal/mol and -4.79 kcal/mol | 0.717 | B2
3 | 8.8 µM and 7.9 µM and 8.7 µM | – | – | – | – | – | B3
